B1: CPEB3 Ribozyme (parent)
chain: GGGGGCCACAGCAGAAGCGUUCACGUCGCGGCCCCUGUCAGAUUCUGGUGAAUCUGCGAAUUCUGCUGU

Variants of: B1
Assay: self-cleavage, relative activity (ratio to wild type); higher = more cleavage; co-transcriptional

Variant | self-cleavage
GGGGUCCACAGCAGAAGCGUUCACGUCUCGGCCCCUGUCAGAUUCUGGUGAAUCUGCGAAUUCUGCUGU [G5U G28U] | 0.0687
GGGGUCCACAGCAGAAGCGUUCACGUCCCGGCCCCUGUCAGAUUCUGGUGAAUCUGCGAAUUCUGCUGU [G5U G28C] | 0.0876
GGGGUCCACAGCAGAAGCGUUCACGUCACGGCCCCUGUCAGAUUCUGGUGAAUCUGCGAAUUCUGCUGU [G5U G28A] | 0.046
GGGGUCCACAGCAGAAGCGUUCACGUCGCGGCCCCUGUCAGAUUCUGGUGAAUCUGCGAAUUCUGCUGG [G5U U69G] | 0.671
GGGGUCCACAGCAGAAGCGUUCACGUCGCGGCCCCUGUCAGAUUCUGGUGAAUCUGCGAAUUCUUCUGU [G5U G65U] | 0.0885
GGGGUCCACAGCAGAAGCGUUCACGUCGCGGCCCCUGUCAGAUUCUGGUGAAUCUGCGAAUUCUACUGU [G5U G65A] | 0.187
GGGGUCCACAGCAGAAGCGUUCACGUCGCGGCCCCUGUCAGAUUCUGGUGAAUCUGCGAAUUCUGUUGU [G5U C66U] | 0.299
GGGGUCCACAGCAGAAGCGUUCACGUCGCGGCCCCUGUCAGAUUCUGGUGAAUCUGCGAAUUCUGGUGU [G5U C66G] | 0.133
GGGGGACACAGCAGCAGCGUUCACGUCGCGGCCCCUGUCAGAUUCUGGUGAAUCUGCGAAUUCUGCUGU [C6A A15C] | 0.235
GGGGUCCACAGCAGAAGCGUUCACGUCGCGGCCCCUGUCAGAGUCUGGUGAAUCUGCGAAUUCUGCUGU [G5U U43G] | 0.161
GGGGUCCACAGCAGAAGCGUUCACGUCGCGGCCCCUGUCAGAUGCUGGUGAAUCUGCGAAUUCUGCUGU [G5U U44G] | 0.0852
GGGGUCCACAGCAGAAGCGUUCACGUCGCGGCCCCUGUCAGAUCCUGGUGAAUCUGCGAAUUCUGCUGU [G5U U44C] | 0.192
GGGGUCCACAGCAGAAGCGUUCACGUCGCGGCCCCUGUCAGAUACUGGUGAAUCUGCGAAUUCUGCUGU [G5U U44A] | 0.125
GGGGUCCACAGCAGAAGCGUUCACGUCGCCGCCCCUGUCAGAUUCUGGUGAAUCUGCGAAUUCUGCUGU [G5U G30C] | 0.08
GGGGUCCACAGCAGAAGCGUUCACGUCGCUGCCCCUGUCAGAUUCUGGUGAAUCUGCGAAUUCUGCUGU [G5U G30U] | 0.0993
GGGGUCCACAGCAGAAGCGUUCACGUCGCGGCCCCUGUCAGAUUCUGGUGAAUCUGCGAAUACUGCUGU [G5U U62A] | 0.123
GGGGUCCACAGCAGAAGCGUUCACGUCGCGGCCCCUGUCAGAUUCUGGUGAAUCUGCGAAUUCUGCGGU [G5U U67G] | 0.615
GGGGGACACAGCGGAAGCGUUCACGUCGCGGCCCCUGUCAGAUUCUGGUGAAUCUGCGAAUUCUGCUGU [C6A A13G] | 0.506
GGGGUCCACAGCAGAAACGUUCACGUCGCGGCCCCUGUCAGAUUCUGGUGAAUCUGCGAAUUCUGCUGU [G5U G17A] | 0.082
GGGGUCCACAGCAGAAUCGUUCACGUCGCGGCCCCUGUCAGAUUCUGGUGAAUCUGCGAAUUCUGCUGU [G5U G17U] | 0.0412

Variant | self-cleavage
GGGGUCCACAGCAGAACCGUUCACGUCGCGGCCCCUGUCAGAUUCUGGUGAAUCUGCGAAUUCUGCUGU [G5U G17C] | 0.0663
GGGGUCCACAGCAGAAGCGUUCACGUCGCGGCCCCUGCCAGAUUCUGGUGAAUCUGCGAAUUCUGCUGU [G5U U38C] | 0.174
GGGGUCCACAGCAGAAGCGUUCACGUCGCGGCCCCUGUCAGAUUCUGGUGAAUCUGCGAAAUCUGCUGU [G5U U61A] | 0.108
GGGGUCCACAGCAGAAGCGUUCACGUCGCGGCCCCUGUCAGAUUCUGGUGAAUCUGCGAACUCUGCUGU [G5U U61C] | 0.0722
GGGGUCCACAUCAGAAGCGUUCACGUCGCGGCCCCUGUCAGAUUCUGGUGAAUCUGCGAAUUCUGCUGU [G5U G11U] | 0.098
GGGGUCCACAGCAGAAGCGUUCACGUCGCGGCCCCUGUCAGAUUCUGCUGAAUCUGCGAAUUCUGCUGU [G5U G48C] | 0.327
GGGGUCCACAGCAGAAGCGUUCACGUCGCGGCCCCUGUCAGAUUCUGUUGAAUCUGCGAAUUCUGCUGU [G5U G48U] | 0.332
GGGGUCCACAGCAGAAGCGUUCACGUCGCGCCCCCUGUCAGAUUCUGGUGAAUCUGCGAAUUCUGCUGU [G5U G31C] | 0.0656
GGGGUCCACAGCAGAAGCGUUCACGUCGCGACCCCUGUCAGAUUCUGGUGAAUCUGCGAAUUCUGCUGU [G5U G31A] | 0.132
GGGGUCCACAGCAGAAGCGUUCACGUCGCGGCCCCUGUCAGAUUCUGGUGAAGCUGCGAAUUCUGCUGU [G5U U53G] | 0.152
GGGGGACACAGCAGACGCGUUCACGUCGCGGCCCCUGUCAGAUUCUGGUGAAUCUGCGAAUUCUGCUGU [C6A A16C] | 0.0824
GGGGGACACAGCAGAUGCGUUCACGUCGCGGCCCCUGUCAGAUUCUGGUGAAUCUGCGAAUUCUGCUGU [C6A A16U] | 0.159
GGGGGACACAGCAGAGGCGUUCACGUCGCGGCCCCUGUCAGAUUCUGGUGAAUCUGCGAAUUCUGCUGU [C6A A16G] | 0.418
GGGGUCCACAGCAGAAGCGUUCACGUCGCGGCCCCUGUCAGAUUCUGGUGAAUCGGCGAAUUCUGCUGU [G5U U55G] | 0.0798
GGGGUCCACAGCAGAAGCGUUCACGUCGCGGCCCCUGUCAGAUUCUGGUGAAUCAGCGAAUUCUGCUGU [G5U U55A] | 0.0876
GGGGGACACAGCAGAAGCGUUCACGUCGCGGCCCCUGUCAGAUUCUGGUGAAUCUGCGAAUUCUGCUGU [C6A] | 0.705
GGGGGACCCAGCAGAAGCGUUCACGUCGCGGCCCCUGUCAGAUUCUGGUGAAUCUGCGAAUUCUGCUGU [C6A A8C] | 0.733
GGGGGACUCAGCAGAAGCGUUCACGUCGCGGCCCCUGUCAGAUUCUGGUGAAUCUGCGAAUUCUGCUGU [C6A A8U] | 0.607
GGGGUCCACAGCAGAAGCGUUCACCUCGCGGCCCCUGUCAGAUUCUGGUGAAUCUGCGAAUUCUGCUGU [G5U G25C] | 0.0917
